In patent publication US20230060095A1 (Regeneron, published 2023):
Residue numbers refer to the chain shown, from its start. Values belong to the binder of their own block, whether it stands above or below them.

Key:
peptide on HLA-A*02:01 = biological target: T1, peptide on HLA-A*02:01 (human); experiment: activation reporter or marker
T1 peptide: SLLMWITQC

[1] = biological target: HLA-A2/PRAME (425-433) on HLA-A2*01 HEK293T cells pulsed with PRAME 425-433 peptide (human); experiment: cell-based or functional assay
[2] = biological target: T2, PRAME peptide on HLA-A*02:01 (human); experiment: multimer staining
T2 peptide: SLLQHLIGL

[3] = biological target: T3, soluble HLA:A2:PRAME (425-433) tetramer (human); experiment: flow cytometry, soluble pMHC tetramer on CHO cells expressing the TCR;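 further: CHO cells transfected with vectors encoding full-length paired TCR alpha and beta chains, stained with PRAME/HLA tetramer and read by flow cytometry, each value reflects one listed TCR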
T3 construct: Commercial tetramer (MBL International); construct limits, biotin tag and streptavidin/fluorophore not described; also called PRAME/HLA tetramer reagent; PRAME (425-433)/HLA-A2

binding result (peptide on HLA-A*02:01): no recognition | EC50 (µM) of peptide, AP1 luciferase reporter in Jurkat cells expressing the TCR [1]: 0.0159 µM | binding result [2]: recognises | Cell Frequency ≥1000 MFI, ≥1% (% tetramer positive cells in the Ag+ gate) [3]: 95.8%
B1: PN42365 (TCR, V domains shown)
V domain 1: TQLLEQSPQFLSIQEGENLTVYCNSSSVFSSLQWYRQEPGEGPVLLVTVVTGGEVKKLKRLTFQFGDARKDSSLHITAAQPGDTGLYLCAANGGSQGNLIFGKGTKLSVKP
V domain 2: DAGVTQSPTHLIKTRGQQVTLRCSPKSGHDTVSWYQQALGQGPQFIFQYYEEEERQRGNFPDRFSGHQFPNYSSELNVNALLLGDSALYLCASSLQDYGYTFGSGTRLTVV

binding result [2]: recognises | Cell Frequency ≥1000 MFI, ≥1% (% tetramer positive cells in the Ag+ gate) [3]: 77.5%
B2: PN42378 (TCR, V domains shown)
V domain 1: DAKTTQPNSMESNEEEPVHLPCNHSTISGTDYIHWYRQLPSQGPEYVIHGLTSNVNNRMASLAIAEDRKSSTLILHRSTLRDAAVYYCILRPDSWGKFQFGAGTQVVVTP
V domain 2: B1 V domain 2
notes: stained with anti-mouse TCR constant region antibody H57-597) and full-length chains were expressed on CHO cells

binding result (peptide on HLA-A*02:01): no recognition | Cell Frequency ≥1000 MFI, ≥1% (% tetramer positive cells in the Ag+ gate) [3]: 86.4%
B3: PN42483 (TCR, V domains shown)
V domain 1: B1 V domain 1 with A91G, N92D
V domain 2: EAQVTQSPRYLITVTGKKLTVTCSQNMNHEYMSWYRQDPGLGLRQIYYSMNVEVTDKGDVPEGYKVSRKEKRNFPLILESPSPNQTSLYFCASSLGGADEKLFFGSGTQLSVL

binding result (peptide on HLA-A*02:01): no recognition | Cell Frequency ≥1000 MFI, ≥1% (% tetramer positive cells in the Ag+ gate) [3]: 93.1%
B4: PN42879 (TCR, V domains shown)
V domain 1: TQLLEQSPQFLSIQEGENLTVYCNSSSVFSSLQWYRQEPGEGPVLLVTVVTGGEVKKLKRLTFQFGDARKDSSLHITAAQPGDTGLYLCAGEDFGNEKLTFGTGTRLTIIP
V domain 2: B1 V domain 2 with L95W, Q96A

binding result (peptide on HLA-A*02:01): no recognition | EC50 (µM) of peptide, AP1 luciferase reporter in Jurkat cells expressing the TCR [1]: 0.00242 µM | binding result [2]: recognises | Cell Frequency ≥1000 MFI, ≥1% (% tetramer positive cells in the Ag+ gate) [3]: 90.3%
B5: PN42498 (TCR, V domains shown)
V domain 1: B1 V domain 1 with A91G, N92D
V domain 2: B1 V domain 2 with Q96V

binding result (peptide on HLA-A*02:01): no recognition | EC50 (µM) of peptide, AP1 luciferase reporter in Jurkat cells expressing the TCR [1]: 0.0271 µM | binding result [2]: recognises | Cell Frequency ≥1000 MFI, ≥1% (% tetramer positive cells in the Ag+ gate) [3]: 82.2%
B6: PN42386 (TCR, V domains shown)
V domain 1: B1 V domain 1 with A91T
V domain 2: B1 V domain 2

binding result (peptide on HLA-A*02:01): no recognition | EC50 (µM) of peptide, AP1 luciferase reporter in Jurkat cells expressing the TCR [1]: 0.0095 µM | binding result [2]: recognises | Cell Frequency ≥1000 MFI, ≥1% (% tetramer positive cells in the Ag+ gate) [3]: 4.92%
B7: PN42689 (TCR, V domains shown)
V domain 1: B1 V domain 1 with A91E, N92D
V domain 2: B1 V domain 2 with Q96S

binding result [2]: recognises | Cell Frequency ≥1000 MFI, ≥1% (% tetramer positive cells in the Ag+ gate) [3]: 60.2%
B8: PN42776 (TCR, V domains shown)
V domain 1: B2 V domain 1
V domain 2: B1 V domain 2 with L95W, Q96T
notes: as for B2

binding result [2]: recognises | Cell Frequency ≥1000 MFI, ≥1% (% tetramer positive cells in the Ag+ gate) [3]: 53%
B9: PN42455 (TCR, V domains shown)
V domain 1: B2 V domain 1
V domain 2: B1 V domain 2 with Q96V
notes: as for B2

binding result (peptide on HLA-A*02:01): no recognition | EC50 (µM) of peptide, AP1 luciferase reporter in Jurkat cells expressing the TCR [1]: 0.0309 µM | binding result [2]: recognises | Cell Frequency ≥1000 MFI, ≥1% (% tetramer positive cells in the Ag+ gate) [3]: 52.5%
B10: PN42840 (TCR, V domains shown)
V domain 1: B1 V domain 1 with A91E, N92G
V domain 2: B1 V domain 2 with L95W, Q96T

binding result (peptide on HLA-A*02:01): no recognition | EC50 (µM) of peptide, AP1 luciferase reporter in Jurkat cells expressing the TCR [1]: 0.0137 µM | binding result [2]: recognises | Cell Frequency ≥1000 MFI, ≥1% (% tetramer positive cells in the Ag+ gate) [3]: 80.2%
B11: PN42561 (TCR, V domains shown)
V domain 1: DAKTTQPNSMESNEEEPVHLPCNHSTISGTDYIHWYRQLPSQGPEYVIHGLTSNVNNRMASLAIAEDRKSSTLILHRATLRDAAVYYCILRDGTGNQFYFGTGTSLTVIP
V domain 2: EAQVTQNPRYLITVTGKKLTVTCSQNMNHEYMSWYRQDPGLGLRQIYYSMNVEVTDKGDVPEGYKVSRKEKRNFPLILESPSPNQTSLYFCASSLWTGGGYTFGSGTRLTVV

binding result (peptide on HLA-A*02:01): no recognition | binding result [2]: recognises | Cell Frequency ≥1000 MFI, ≥1% (% tetramer positive cells in the Ag+ gate) [3]: 27%
B12: PN42655 (TCR, V domains shown)
V domain 1: B2 V domain 1
V domain 2: B11 V domain 2
notes: as for B2

binding result (peptide on HLA-A*02:01): no recognition | Cell Frequency ≥1000 MFI, ≥1% (% tetramer positive cells in the Ag+ gate) [3]: 11.1%
B13: PN42683 (TCR, V domains shown)
V domain 1: DAKTTQPNSMESNEEEPVHLPCNHSTISGTDYIHWYRQLPSQGPEYVIHGLTSNVNNRMASLAIAEDRKSSTLILHRATLRDAAVYYCILRDREYGNKLVFGAGTILRVKS
V domain 2: B11 V domain 2

binding result (peptide on HLA-A*02:01): no recognition | Cell Frequency ≥1000 MFI, ≥1% (% tetramer positive cells in the Ag+ gate) [3]: 20.1%
B14: PN42654 (TCR, V domains shown)
V domain 1: B11 V domain 1 with T94I
V domain 2: B11 V domain 2

binding result (peptide on HLA-A*02:01): no recognition | Cell Frequency ≥1000 MFI, ≥1% (% tetramer positive cells in the Ag+ gate) [3]: 25.3%
B15: PN42677 (TCR, V domains shown)
V domain 1: B11 V domain 1
V domain 2: B11 V domain 2 with L95S, W96T, T97G, G98Y, G99Y

binding result (peptide on HLA-A*02:01): no recognition | Cell Frequency ≥1000 MFI, ≥1% (% tetramer positive cells in the Ag+ gate) [3]: 6.08%
B16: PN42610 (TCR, V domains shown)
V domain 1: QKEVEQNSGPLSVPEGAIASLNCTYSDRGSQSFFWYRQYSGKSPELIMSIYSNGDKEDGRFTAQLNKASQYVSLLIRDSQPSDSATYLCAGNYGQNFVFGPGTRLSVLP
V domain 2: AAGVIQSPRHLIKEKRETATLKCYPIPRHDTVYWYQQGPGQDPQFLISFYEKMQSDKGSIPDRFSAQQFSDYHSELNMSSLELGDSALYFCASSIGLNQPQHFGDGTRLSIL

binding result (peptide on HLA-A*02:01): no recognition | EC50 (µM) of peptide, AP1 luciferase reporter in Jurkat cells expressing the TCR [1]: 1.25 µM | binding result [2]: recognises | Cell Frequency ≥1000 MFI, ≥1% (% tetramer positive cells in the Ag+ gate) [3]: 4.89%
B17: PN42780 (TCR, V domains shown)
V domain 1: TQLLEQSPQFLSIQEGENLTVYCNSSSVFSSLQWYRQEPGEGPVLLVTVVTGGEVKKLKRLTFQFGDARKDSSLHITAAQPGDTGLYLCAGGTSGTYKYIFGTGTRLKVLA
V domain 2: EAQVTQNPRYLITVTGKKLTVTCSQNMNHEYMSWYRQDPGLGLRQIYYSMNVEVTDKGDVPEGYKVSRKEKRNFPLILESPSPNQTSLYFCASSPGTPNYGYTFGSGTRLTVV

binding result (peptide on HLA-A*02:01): no recognition | EC50 (µM) of peptide, AP1 luciferase reporter in Jurkat cells expressing the TCR [1]: 0.727 µM | binding result [2]: recognises | Cell Frequency ≥1000 MFI, ≥1% (% tetramer positive cells in the Ag+ gate) [3]: 24.7%
B18: PN42706 (TCR, V domains shown)
V domain 1: GIQVEQSPPDLILQEGANSTLRCNFSDSVNNLQWFHQNPWGQLINLFYIPSGTKQNGRLSATTVATERYSLLYISSSQTTDSGVYFCAVEASGTYKYIFGTGTRLKVLA
V domain 2: B17 V domain 2 with P95W, P98G, N99G

binding result (peptide on HLA-A*02:01): no recognition | EC50 (µM) of peptide, AP1 luciferase reporter in Jurkat cells expressing the TCR [1]: 0.0281 µM | binding result [2]: recognises | Cell Frequency ≥1000 MFI, ≥1% (% tetramer positive cells in the Ag+ gate) [3]: 92%
B19: PN42562 (TCR, V domains shown)
V domain 1: B17 V domain 1 with T93P
V domain 2: B17 V domain 2

binding result (peptide on HLA-A*02:01): no recognition | EC50 (µM) of peptide, AP1 luciferase reporter in Jurkat cells expressing the TCR [1]: 0.232 µM | binding result [2]: recognises | Cell Frequency ≥1000 MFI, ≥1% (% tetramer positive cells in the Ag+ gate) [3]: 61.3%
B20: PN42442 (TCR, V domains shown)
V domain 1: B17 V domain 1
V domain 2: B17 V domain 2 with P98A

binding result [2]: recognises | Cell Frequency ≥1000 MFI, ≥1% (% tetramer positive cells in the Ag+ gate) [3]: 40.8%
B21: PN42750 (TCR, V domains shown)
V domain 1: B2 V domain 1
V domain 2: DVKVTQSSRYLVKRTGEKVFLECVQDMDHENMFWYRQDPGLGLRLIYFSYDVKMKEKGDIPEGYSVSREKKERFSLILESASTNQTSMYLCASSTVRQGNYGYTFGSGTRLTVV
notes: as for B2

binding result [2]: recognises | Cell Frequency ≥1000 MFI, ≥1% (% tetramer positive cells in the Ag+ gate) [3]: 54.2%
B22: PN42476 (TCR)
TCR alpha: B2 V domain 1
TCR beta: EAQVTQSPRYLITVTGKKLTVTCSQNMDHEYMSWYRQDPGLGLRQIYYSMNVEVTDKGDVPEGYKVPRKEKRSFPLILESPCCSQTPLYLCASSLGGVDERLSFGSGTQLSVL
notes: as for B2
